Source: US10590386B2, “Methods and compositions for preparing cardiomyocytes from stem cells and uses thereof” (Insitute of Biophysics, Chinese Academy of Sciences, priority 2010, dated 2020)
Entries after “also recorded” stand apart in the source; their conditions may differ. Where two headings read alike, the source gives them in different places.

How the values were obtained:
Type in all cases: cell-based, human
[1] = system: hESC line H7; test: Cardiac differentiation efficiency of hESCs, CTNT antibody staining and flow cytometry on day 14
Method: (§1) Undifferentiated hESC line H7 from the WiCell Research Institute was maintained on matrigel-coated plates, as previously described^37. In the basic cardiac induction protocol (BP), undifferentiated hESCs were seeded on gelatin-coated plates at a density of 1-5×10^5 cells/cm^2 and cultured with mouse embryonic fibroblast conditioned medium for 3 days until fully confluent. To initiate cell differentiation, the medium was changed to RPMI1640, supplemented with B27 (Invitrogen). Cells were treated with 25 ng/ml BMP4 and 6 ng/ml bFGF at day 1, 100 ng/ml activin A at day 2, and 200 ng/ml DKK1 (R&D Systems) from day 6 to day 11. The medium was changed every 3 days after day 11 (FIG. 1). 250 ng/ml Noggin, 1 μM RA (Sigma) or 1 μM RAi were added to the cell culture at the times specified in FIGS. 1A-C. Spontaneous beating clusters were typically observed at days 10 to 11. Cardiac differentiation efficiency was analyzed on day 14 with CTNT antibody staining and flow cytometry.
Differentiated cell clusters were dissociated into single cells with 0.25% trypsin-EDTA, which were then fixed and stained with anti-human CTNT antibody (R&D Systems) and goat anti-mouse FITC-conjugated secondary antibody (Santa Cruz) in PBS plus 0.5% BSA and 0.1% saponin (Sigma) at 4° C. Stained cells were kept in 4% paraformaldehyde for subsequent quantitative analysis. Data were collected using FACScalibur (Becton Dickinson) and analyzed with FlowJo software (Treestar).

[2] = system: hESC line H7; test: Immunostaining and Western blotting of cardiac markers in 60 day-old differentiated cultures
Method: as §1
Sixty (60) day-old differentiated cultures were digested with 0.25% trypsin-EDTA, and the cells were plated on gelatin-coated coverslips for 5 days, allowing full attachment to occur. Cells were then fixed in 4% paraformaldehyde, and incubated with primary antibodies of mouse anti-human CTNT (R&D systems), mouse anti-human α-Actinin (Sigma), mouse anti-human β-MHC (ATCC), mouse anti-human MLC-2a (Synaptic Systems), or rabbit anti-human MLC-2v (ProteinTech Group). Goat anti-mouse secondary antibody conjugated with DyLight 488 (Santa Cruz Biotechnology) and goat anti-rabbit secondary antibody conjugated with Tritc (Santa Cruz Biotechnology) were used as needed. After the nuclei were counterstained with 4′,6-diamidino-2-phenylindole (DAPI, Sigma), immunofluorescence images were visualized and recorded using an Olympus microscope system X51 or Olympus LSCM FV1000.
One well of a 24-well plate of 60 day-old differentiated cells was lysed with RIPA lysis buffer (Biomiga) for Western blotting. […]

[3] = system: hESC-derived cardiomyocytes; test: Effect of nifedipine on AP duration of hESC-derived cardiomyocytes (patch clamp); settings: myocytes from Noggin+RA-treated cultures; FIG. 4B right
Method: […] to 90 day-old differentiated cultures were washed in a low Ca^2+ solution, and then incubated in an enzyme solution for 20 min at 37° C. The dissociation was completed in KB solution by gently shaking for 40 min at room temperature. The isolated cells were resuspended in DMEM plus 10% FBS, and transferred on 0.1% gelatin-coated glass coverslips, and then kept in an incubator at 37° C., 5% CO2. The composition of the low Ca^2+ solution was (in mM):120 NaCl, 5.4 KCl, 5 MgSO4, 5 Na pyruvate, 20 glucose, 20 taurine, 10 HEPES. The pH was adjusted to 7.3 with NaOH. KB solution contained (in mM): 85 KCl, 30 K2HPO4, 5 MgSO4, 1 EGTA, 2 Na2ATP, 5 Na pyruvate, 20 glucose, 20 taurine, 5 creatine, adjusted to pH 7.3 with KOH.
Action potentials of cardiomyocytes were recorded in a whole-cell patch clamp configuration, using an Axon 200B amplifier (Axon Instruments) at room temperature. Data were digitized at 20 kHz and filtered at 2 kHz, and were analyzed by PClamp 9.0. Patch pipettes (2-4MΩ resistance) were filled with an intracellular solution containing (in mM) 50 KCl, 60 K-Aspartate, 1 MgCl2, 3 Na2ATP, 10 EGTA, 10 mM HEPES, adjusted to pH 7.3 with KOH. Normal Tyrode's solution was used as an extracellular solution and contained (in mM) 140 NaCl, 5 KCl, 1 CaCl2, 1 MgCl2, 10 glucose, 10 HEPES, adjusted to pH 7.4 with NaOH.

[4] = system: BMP signaling; test: Western blot for phosphorylated Smad1,5,8; settings: data not shown
Method: One well of a 24-well plate of 60 day-old differentiated cells was lysed with RIPA lysis buffer (Biomiga) for Western blotting. Blots were incubated with mouse anti-human CTNT, mouse anti-human β-MHC, rabbit anti-human MLC-2v, goat anti-ANF, mouse anti-human MLC-2a, mouse anti-human β-actin, rabbit anti-phospho smad1/5/8 and rabbit anti-smad1/5/8 separately, and then with HRP-conjugated goat anti-mouse or anti-rabbit antibody.

| Molecule | effect on cardiac differentiation efficiency / cardiogenesis of hESCs (summary statement) [1] | effect on cardiac differentiation ([1]; RAi added between days 6 to 9, FIG. 1C) | effect on cardiac differentiation efficiency / cardiogenesis of hESCs (summary statement) ([1]; listed as BMS-189453) | β-MHC expression (western blots) ([2]; 60 day old RA and RAi treated cultures (with Noggin), FIG. 6) | effect on duration of atrial-like APs [3] | activities of BMP signaling (phosphorylated Smad1,5,8) [4] | effect on cardiac differentiation ([1]; Noggin present between days 2 and 3, FIG. 1B) | effect on cardiac differentiation ([1]; Noggin present between days 2.5 and 4.5, FIG. 1B) | effect on cardiac differentiation ([1]; Noggin present between days 4 and 5, FIG. 1B) | differentiation efficiency (CTNT+ cells, flow cytometry) ([1]; day 14 cultures, Noggin on days 4 and 5, RAi from days 6 to 8, mean±s.e.m, FIG. 1D) | cTNT positive cells that are also MLC-2v positive ([2]; 60 day old cultures, immunostaining, FIG. 5) | MLC-2v expression (Western blotting) ([2]; 60 day-old cultures, FIG. 3C, FIG. 5) |
| --- | --- | --- | --- | --- | --- | --- | --- | --- | --- | --- | --- | --- |
| CC1(C)CC=C(c2ccccc2)c2cc(/C=C/c3ccc(C(=O)O)cc3)ccc21 [RAi, BMS-189453, reference compound] | significantly promote cardiogenesis | markedly increased | significantly increase | evenly expressed |  |  |  |  |  |  |  |  |
| COC(=O)C1=C(C)NC(C)=C(C(=O)OC)C1c1ccccc1[N+](=O)[O-] [nifedipine] |  |  |  |  | No significant effect |  |  |  |  |  |  |  |
| Noggin: BMP antagonist protein, added at 250 ng/ml (protein, UniProt Q13253 28-232, looked up) Noggin: QHYLHIRPAPSDNLPLVDLIEHPDPIFDPKEKDLNETLLRSLLGGHYDPGFMATSPPEDRPGGGGGAAGGAEDLAELDQLLRQRPSGAMPSEIKGLEFSEGLAQGKKQRLSKKLRRKLQMWLWSQTFCPVLYAWNDLGSRFWPRYVKVGSCFSKRSCSVPEGMVCKPSKSVHLTVLRWRCQRRGGQRCGWIPIQYPIISECKCSC | significantly increase; also recorded: significantly promote cardiogenesis |  |  |  |  | reduced the activities of BMP signaling | slightly repressed | significantly promoted | Highest cardiac differentiation efficiencies | 50%±3.06% | about 35% | weak MLC-2v expression |
